Test results taken from the RNAGym collection of RNA variant scans (doi:10.7554/elife.80360).

B1: HDV Ribozyme (parent)
chain: GGCCGGCAUGGUCCCAGCCUCCUCGCUGGCGCCGGCUGGGCAACAUUCCGAGGGGACCGUCCCCUCGGUAAUGGCGAAUGGGACCCA

Variants of: B1
Assay: self-cleavage, relative activity (ratio to wild type); higher = more cleavage; co-transcriptional

Row | Variant | self-cleavage
1 | GGUCGGCAUGGUCCCAGCCUCCUCGCUGGCGCCGGCUGGGCAACAUUCCGAGGGGCCCGUCCCCUCGGUAAUGGCGAAUGGGACCCA | 0.675
2 | GGUCGGCAUGGUCCCAGCCUCCUCGCUGGCGCCGGCUGGGCCACAUUCCGAGGGGACCGUCCCCUCGGUAAUGGCGAAUGGGACCCA | 0.181
3 | GGGCGGCAUGGUCCCAGCCUCCUCGCUGGCGCCGGCUGGGCAACAUUCCGAGGGGACCGUCCCCUCGGUAAUGGCGAAUAGGACCCA | 0.0911
4 | GGGCGGCAUGGUCCCAGCCUCCUCGCUGGCGCCGGCUGGGCAACAUUCCGAGGGGACCGUCCCCUCGGUAAUGGCGAAUCGGACCCA | 0.0665
5 | GGGCUGCAUGGUCCCAGCCUCCUCGCUGGCGCCGGCUGGGCAACAUUCCGAGGGGACCGUCCCCUCGGUAAUGGCGAAUGGGACCCA | 0.119
6 | GGGCGGCAUGGUCCCAGCCUCCUCGCUGGCGCCGGCUGGGCAACAUUCCGAGGGGACCGUCCCCUCGGUAAUGGCGAAUGGGACGCA | 0.774
7 | GGGCGGCAUGGUCCCAGCCUCCUCGCUGGCGCCGGCUGGGCAACAUUCCGAGGGGACUGUCCCCUCGGUAAUGGCGAAUGGGACCCA | 0.709
8 | GGGCGGCAUGGUCCCAGCCUCCUCGCUGGCGCCGGCUGGGCAACAUUCCGAGGGGACAGUCCCCUCGGUAAUGGCGAAUGGGACCCA | 0.842
9 | GGUCGGCAUGGUCCCAGCCUCCUCGCUGGCGCCGGCUGGGCAACAUUCCGAGGGGACCGUCCCCUCGGUAAUGGCGUAUGGGACCCA | 0.354
10 | GGUCGGCAUGGUCCCAGCCUCCUCGCUGGCGCCGGCUGGGCAACAUUCCGAGGGGACCGUCCCCUCGGUAAUGGCGGAUGGGACCCA | 0.739
11 | GGGCGGCAUGGUCCCAGCCUCCUCGCUGGCGCCGGCUGGGCAACAUUCCGAGGGGAACGUCCCCUCGGUAAUGGCGAAUGGGACCCA | 0.802
12 | GGUCGGCAUGGUCCAAGCCUCCUCGCUGGCGCCGGCUGGGCAACAUUCCGAGGGGACCGUCCCCUCGGUAAUGGCGAAUGGGACCCA | 0.481
13 | GGGCGGCAUGGUCCCAGCCUCCUCGCUGGCGCCGGCUGGGCAACAUUCCGAGGGGACCGUCCCCUCGGUAAUGACGAAUGGGACCCA | 0.114
14 | GGGCGGCAUGGUCCCAGCCUCCUCGCUGGCGCCGGCUGGGCAACAUUCCGAGGGGACCGUACCCUCGGUAAUGGCGAAUGGGACCCA | 0.87
15 | GGGCGGCAUGGUCCCAGCCUCCUCGCUGGCGCCGGCUGGGCAACAUUCCGAGGGGACCGUUCCCUCGGUAAUGGCGAAUGGGACCCA | 0.729
16 | GGGCGGCAUGGUCCCAGCCUCCUCGCUGGCGCCGGCUGGGCAACAUUCCGAGGGGACCGUCCCCUCGGUAAGGGCGAAUGGGACCCA | 0.345

Row | Variant | self-cleavage
17 | GGGCGGCAUGGUCCCAGCCUCCUCGCUGGCGCCGGCUGGGCAACAUUCCGAGCGGACCGUCCCCUCGGUAAUGGCGAAUGGGACCCA | 0.609
18 | GGGCGGCAUGGUCCCAGCCUCCUCGCUGGCGCCGGCUGGUCAACAUUCCGAGGGGACCGUCCCCUCGGUAAUGGCGAAUGGGACCCA | 0.442
19 | GGUCGGCAUGGUCCCAGCAUCCUCGCUGGCGCCGGCUGGGCAACAUUCCGAGGGGACCGUCCCCUCGGUAAUGGCGAAUGGGACCCA | 0.0573
20 | GGGCGGCAUGGUCCCAGCCUCCUCGCUGGCGCCGGCUGGGCAACAUUCCGAGGGGACCGUCCCCUCGGCAAUGGCGAAUGGGACCCA | 0.653
21 | GGGCGGCACGGUCCCAGCCUCCUCGCUGGCGCCGGCUGGGCAACAUUCCGAGGGGACCGUCCCCUCGGUAAUGGCGAAUGGGACCCA | 0.554
22 | GGGCGGCAUGGUCCCAGCCUCCUCGCUGGCGCCGACUGGGCAACAUUCCGAGGGGACCGUCCCCUCGGUAAUGGCGAAUGGGACCCA | 1.08
23 | GGGCGGCAUGGUCCCAGCCUUCUCGCUGGCGCCGGCUGGGCAACAUUCCGAGGGGACCGUCCCCUCGGUAAUGGCGAAUGGGACCCA | 0.0326
24 | GGGCGGCAUGGUCCCAGCCUCCCCGCUGGCGCCGGCUGGGCAACAUUCCGAGGGGACCGUCCCCUCGGUAAUGGCGAAUGGGACCCA | 0.48
25 | GGGCGGCAUGGUCCCAGCCUCCUCGCAGGCGCCGGCUGGGCAACAUUCCGAGGGGACCGUCCCCUCGGUAAUGGCGAAUGGGACCCA | 0.308
26 | GGGCGGCAUGGUCCCAGCCUCCUCGCUGGCGCCGGCCGGGCAACAUUCCGAGGGGACCGUCCCCUCGGUAAUGGCGAAUGGGACCCA | 1.08
27 | GGGCGGCAUGGUCCCAGCCUCCUCGCUGACGCCGGCUGGGCAACAUUCCGAGGGGACCGUCCCCUCGGUAAUGGCGAAUGGGACCCA | 0.106
28 | GGGCGGCAUGGUCCCAGCCUCCUCGCUGGAGCCGGCUGGGCAACAUUCCGAGGGGACCGUCCCCUCGGUAAUGGCGAAUGGGACCCA | 0.0639
29 | GGGCGGCAUGGUCCCAGCCUCCUCGCUGGGGCCGGCUGGGCAACAUUCCGAGGGGACCGUCCCCUCGGUAAUGGCGAAUGGGACCCA | 0.0594
30 | GGGCGGCAUGUUCCCAGCCUCCUCGCUGGCGCCGGCUGGGCAACAUUCCGAGGGGACCGUCCCCUCGGUAAUGGCGAAUGGGACCCA | 0.0683
31 | GGGCGGCAUGGUCCCAGCAUCCUCGCUGGCGCCGGCUGGGCAACAUUCCGAGGGGACCGUCCCCUCGGUAAUGGCGAAUGGGACCCA | 0.0594
32 | GGGCGGCAUGGUCCCAGCCUCCUCGCUGGCUCCGGCUGGGCAACAUUCCGAGGGGACCGUCCCCUCGGUAAUGGCGAAUGGGACCCA | 0.0739
